Experimental data as given in patent US20250269026A1 (CHENGDU KELUN PRECISION BIOTECHNOLOGY, published 2025).

B1: G5-CAR (other)
chain: QVQLVQSGGGLVQPGRSLRLSCAASGFTFDDYAMHWVRQAPGKGLEWVSGISWNSGSIGYADSVKGRFTISRDNAKNSLYLQMNSLRAEDTALYYCAKDMGSSGWSPVDYWGQGTLVTVSSASGGGGSGGRASGGGGSDIQVTQSPSSLSASVGDRVTITCRASQGINHYLAWYQQKPGKAPKLLIYGASTLQTGVSSRFSGSGSGTEFTLTISSLQPEDFATYYCQQLNGYPLGYTFGQGTKVEIKRTTTPAPRPPTPAPTIASQPLSLRPEACRPAAGGAVHTRGLDFACDIYIWAPLAGTCGVLLLSLVITLYCKRGRKKLLYIFKQPFMRPVQTTQEEDGCSCRFPEEEEGGCELRVKFSRSADAPAYKQGQNQLYNELNLGRREEYDVLDKRRGRDPEMGGKPRRKNPQEGLYNELQKDKMAEAYSEIGMKGERRRGKGHDGLYQGLSTATKDTYDALHMQALPPR
notes: Chimeric antigen receptor on lentivirus-transduced human T cells; the signal peptide is left out here; also called G5 chimeric antigen receptor
B2: G16-CAR (other)
chain: QVQLVQSGAEVTKPGASVKVSCRASGYPFSNFFMNWVRQAPGQGLEWMGIINPIGGSTTYAQKFQGRVTMTRDTSTDTVYMELSSLRSDDTAVYYCARSSSHLGAFDIWGQGTMVTVSSASGGGGSGGRASGGGGSDIQLTQSPSSVSASVGDRVTITCRASQSISTWVAWYQHKPGVAPKLLIYASPTLQSGVPSRFSGSGSGTDFTLTISSLQSEDFATYYCQQAHSFPITFGQGTRLEIKRTTTPAPRPPTPAPTIASQPLSLRPEACRPAAGGAVHTRGLDFACDIYIWAPLAGTCGVLLLSLVITLYCKRGRKKLLYIFKQPFMRPVQTTQEEDGCSCRFPEEEEGGCELRVKFSRSADAPAYKQGQNQLYNELNLGRREEYDVLDKRRGRDPEMGGKPRRKNPQEGLYNELQKDKMAEAYSEIGMKGERRRGKGHDGLYQGLSTATKDTYDALHMQALPPR
notes: Chimeric antigen receptor on lentivirus-transduced human T cells; the signal peptide is left out here; also called G16 chimeric antigen receptor

Target: biotin-labeled MSLN antigen (UniProt Q13421 296-580, limits assumed, biotin label (site not stated))
Sequence (Q13421 other isoform, or with tags, fused parts or gaps limits assumed): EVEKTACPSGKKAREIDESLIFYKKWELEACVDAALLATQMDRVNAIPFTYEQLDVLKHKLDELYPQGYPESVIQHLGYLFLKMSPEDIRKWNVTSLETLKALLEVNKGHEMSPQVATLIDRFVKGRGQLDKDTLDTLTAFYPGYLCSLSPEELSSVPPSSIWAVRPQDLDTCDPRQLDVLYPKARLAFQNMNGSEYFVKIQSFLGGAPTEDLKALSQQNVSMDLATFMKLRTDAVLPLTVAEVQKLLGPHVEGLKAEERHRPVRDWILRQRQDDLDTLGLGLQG
Experiment: flow cytometry; CAR-T cells labeled with biotin-labeled MSLN antigen, detected with fluorescent streptavidin
Text: The nucleic acid sequence encoding the CAR was expressed under the drive of promoter, and the lentivirus-transfected T cells were labeled with biotin-labeled MSLN antigen, and then detected with fluorescently labeled streptavidin, and determined by flow cytometry, which reflected the expression level of the CAR on the surface of T cells. The CAR positive rate of the CAR-T cells obtained in Example 3 was detected by the above method, and the FACS detection results were shown in the following table.

Binder | CAR positive rate [%]
B1 | 50.5
B2 | 41.5
